According to patent publication US20150218261A1:

Legend:
[1] = target: Aβ(1-42) globulomer (human); assay: dot blot, antigen dilution series on nitrocellulose, antibody 0.2 µg/ml, densitometry
Aβ(1-42) fibril (human) = assay: as above
sAPPα = sAPPα (UniProt P05067); assay: dot blot, antigen dilution series on nitrocellulose (first dot 1 pmol), antibody 0.2 µg/ml, densitometry

Chain of Aβ(1-42) globulomer (human) (peptide, as listed by the source): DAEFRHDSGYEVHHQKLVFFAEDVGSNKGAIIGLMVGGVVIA
Chain of Aβ(1-42) fibril (human) (peptide, as listed by the source): as above

B1: humanized monoclonal anti-Aβ antibody 4D10hum#1 (antibody, human IgG1, kappa, V domains shown)
VH: EVQLVESGGGLVQPGGSLRLSCAVSGFTLSSYGVHWVRQAPGKGLEWLGVIWRGGRIDYNAAFMSRLTISKDNSKSTVYLQMNSLRAEDTAVYYCARNSDVWGQGTTVTVSS
VL: DVVMTQTPLSLPVTPGQPASISCKSSQSLLDIDGKTYLNWLLQKPGQSPQRLIYLVSKLDSGVPDRFSGSGSGTDFTLKISRVEAEDVGVYYCWQGTHFPYTFGQGTKLEIKR
B1 showed a dot blot quantification (relation between recognition of Aβ(20-42) globulomer and the respective Aβ form) [1] of over 10000, a dot blot quantification (relation between recognition of Aβ(20-42) globulomer and the respective Aβ form) (Aβ(1-42) fibril (human)) of over 10000 and a dot blot quantification (relation between recognition of Aβ(20-42) globulomer and the respective Aβ form) (sAPPα) of over 100.
